In US20230293647A1 (AUTOLUS, published 2023):

What was measured:
[1] = target: SARS-CoV S1 spike protein domain (recombinant) (SARS-CoV, UniProt P59594 14-667); assay: ELISA on coated SARS-CoV S1
[2] = target: T1, SARS-CoV-2 Spike protein, S1 subunit (recombinant) (SARS-CoV-2, UniProt P0DTC2 16-681); assay: ELISA, coated SARS-CoV-2 S1; x axis Log Dilution factor, no concentration
[3] = target: T1, SARS-CoV-2 Spike protein, S1 subunit …; assay: ELISA, scFv-Fc supernatant on coated SARS-CoV-2 S1; cut-off 3x background

| Binder | binding result [1] | binding result [2] | binding result [3] |
| --- | --- | --- | --- |
| dAb clone 9 fused to Fc (Fc fusion, also called clone C9 fused to Fc) QVQLQESGGGLVQAGDSLRLSCAASGRTSDTMTIGWFRQAPGKEREFVASINWSGSTTYYADSVNERFTISRDDAKNTVYLQMNSLKPEDTAVYYCAAKRGVWTIKSAAADFASWGQGTQVTVSS | no binding | binds |  |
| 74648 (Fc fusion) scFv-Fc: EVQLVQSGGGVVQPGKSLRLSCAASGFAFSSYAMHWVRQAPGKGLEWVAVISYDGSNKYYADSVKGRFTISRDNSKNTLYLQMNSLRAEDTAVYYCARDRSYYLDYWGQGTLVTVSSETTLTQSPATLSLSPGERATLSCRASQSVRSNLAWYQQKPGQAPRPLIYDASTRATGIPDRFSGSGSGTDFTLTISRLEPEDFAVYYCQQRSNWPPTFGQGTKVEVK |  |  | no binding (tested: approximately 10 µg/ml) |
| 74649 (Fc fusion) scFv-Fc: QAQLVESGGALVQPGRSLRLSCAASGFTFRNYAMHWVRQAPATGLQWLAVITSDGRNKFYADSVKGRFTISREDSKNTLYLQMDSLRGEDTAVYYCVTQRDNSRDYFPHYFHDMDVWGQGTTVAVSSDVVLTQSPLSLPVTLGQPASISCRSSQSLVYSDGDTYLNWFQQRPGQSPRRLIYQVSNRDSGVPDRFSGSGSGTDFTLKISRVEAEDVGVYYCMQGSHWPPTFGQGTKVEIK |  |  | no binding (tested: approximately 10 µg/ml) |
| 74650 (Fc fusion) scFv-Fc: QVQLQQSGAEVKKPGSSVKVSCKASGGTFSSYTISWVRQAPGQGLEWMGGITPILGIANYAQKFQGRVTITTDESTSTAYMELSSLRSEDTAVYYCARDTVMGGMDVWGQGTTVTVSSSYELTQPPSVSVAPGKTARITCGGNNIGSKSVHWYQQKPGQAPVLVVYDDSDRPSGIPERFSGSNSGNTATLTISRVEAGDEADYYCQVWDSSSDYVFGTGTKVTVL |  |  | no binding (tested: approximately 10 µg/ml) |
| 74651 (Fc fusion) scFv-Fc: EVQLEESGTVLARPGASVKMSCKASGYTFTTYRMHWIKQRPGQGLEWIGAIYPGNSDTTYNQKFKDKAKLTAVTSTSSAYMELSSLTNEDSAVYFCTREGIPQLLRTLDYWGQGTSVTVSSDILMTQSPSSLSASLGERVSLTCRASQEISGYLSWLQEKPDGTIKRLIYAASTLDSGVPKRFSGSRSGSDYSLTISSLESEDFADYYCLQYVSYPWTFGGGTKLEIK |  |  | no binding (tested: approximately 10 µg/ml) |
| 74652 (Fc fusion) scFv-Fc: QVQLLESGAELVKPGASVKVSCKASGYTFTSYWIHWVKQRPGQGLEWIGEINPSNGRTNYNGNFESKATLTVDKSSNTAYMHLSSLTYEDSAVYHCTRLDYWGQGTTLTVSSELVMTQSPASLSVITGKKVTIRCISNTDIDDDLNWSQLKAGEPPKLLISEGNIFSPGVPSRFSSSGNGTDFVFTIENTLSEDVANNYCFQSDNMPFTFGSGTKLEIK |  |  | no binding (tested: approximately 10 µg/ml) |
| 74653 (Fc fusion) scFv-Fc: QVQLQQPGAELVKPGASVKVSCKASGYTFTNYWIHWVKQRPGQGLEWIGEINPGNGRTNYNGNFMNKATLTVDKSSNTAYMQLSSLTSEDSAVYHCARLDYWGQGTTLTVSSELVMTQSPASLSVATGKKVTIRCISSTDIDDDMNWYQQKAGKPPKLLISEGNIFSPGVPSRFSSSGNGTDFVFTVENTLSEDVADNYCLQSDNMPFTFGSGTKLGIK |  |  | no binding (tested: approximately 10 µg/ml) |
| 74655 (Fc fusion) scFv-Fc: QVQLVQSGAEVKKPGASVKVSCKASGYTFTTYGISWVRQAPGQGLEWMGWISAYNGNTNYAQKLQGRVTMTTDTSTSTAYMELRSLRSDDTAVYYCARDDLSDYGEWLGPDYWGQGTLVTVSSQPGLTQPPSASGTPGQRVTISCSGSRSNIGGNTVNWYQHVPGTAPKLLIYSNNQRPSGVPDRFSGSKSGTSASLAISGLRSEDEAEYYCATWEDSLSGYVFGPGTKVTVL |  |  | no binding (tested: approximately 10 µg/ml) |
| 74662 (Fc fusion) scFv-Fc: EVQLVESGGGLVQPGGSLRLSCAASGFTFSGYPMHWVRQAPGKGLEWVAVISYDGSNKYYADSVKGRFTISRDNSKNTLYLQMNSLRAEDTAVYYCAKDGSPRTPSFDYWGQGTLVTVLEDIQMTQSPHSLSASVGDRVTITCRASQGISNYLAWYQQKPGKVPKLLIYAASTLQSGVPSRFSGSGSGTDFTLTISSLQPEDVGVYYCQQRFRTPVTFGQGTKLEIK |  |  | no binding (tested: approximately 10 µg/ml) |
| 74667 (Fc fusion) scFv-Fc: QVQLVQSGAEVKKPGESLKISCKGSGYSFANHWIAWVRQMPGKGLEWMGIFNPDNSDTTYSPSFQGQVTFSADKSISIAYLHWSSLKASDTAIYYCARLALSDGWLHDFWGQGTLVTVSSEIVMTQSPLSLPVTLGQPASISCKSSQSLVDTNGNTYLIWFHQRPGQSPRRLIYQVSKRDSGVPDRFSGSGSGTDFTLKISRVEAEDVGVYFCMQGTYRPPTLGQGTKVEIK |  |  | no binding (tested: approximately 10 µg/ml) |
